Measurements from patent US20250257143A1.

Target: beta gamma receptor (CD122/CD132) for IL2 and IL15 on a reporter cell line (UniProt P14784)
Sequence (P14784 27-551 limits assumed, chain 1 of 2): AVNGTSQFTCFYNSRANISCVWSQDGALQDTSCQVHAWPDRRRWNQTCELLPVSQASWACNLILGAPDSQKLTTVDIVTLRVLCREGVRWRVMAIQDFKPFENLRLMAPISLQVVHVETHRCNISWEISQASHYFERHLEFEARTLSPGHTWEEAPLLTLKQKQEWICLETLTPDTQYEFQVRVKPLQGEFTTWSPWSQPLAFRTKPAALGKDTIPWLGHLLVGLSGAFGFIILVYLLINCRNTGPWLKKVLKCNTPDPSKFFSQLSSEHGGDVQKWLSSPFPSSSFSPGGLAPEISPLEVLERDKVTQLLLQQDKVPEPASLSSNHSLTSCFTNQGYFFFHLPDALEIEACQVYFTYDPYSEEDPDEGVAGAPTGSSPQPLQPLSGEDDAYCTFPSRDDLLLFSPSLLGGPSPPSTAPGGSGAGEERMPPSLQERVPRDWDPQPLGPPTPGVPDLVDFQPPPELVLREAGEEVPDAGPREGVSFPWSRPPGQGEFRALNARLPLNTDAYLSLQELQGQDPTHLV
Sequence (P31785 23-369 limits assumed, chain 2 of 2, further chain): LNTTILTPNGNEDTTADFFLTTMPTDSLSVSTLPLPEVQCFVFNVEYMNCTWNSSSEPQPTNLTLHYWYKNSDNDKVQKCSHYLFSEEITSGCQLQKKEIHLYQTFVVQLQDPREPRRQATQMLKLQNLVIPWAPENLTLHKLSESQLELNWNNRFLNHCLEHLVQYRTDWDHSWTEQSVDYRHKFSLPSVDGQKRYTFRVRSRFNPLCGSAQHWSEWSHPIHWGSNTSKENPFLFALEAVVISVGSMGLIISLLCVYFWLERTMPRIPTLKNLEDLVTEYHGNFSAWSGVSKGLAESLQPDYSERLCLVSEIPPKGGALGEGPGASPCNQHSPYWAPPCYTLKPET

- IC50, inhibition of the IL2 (12.5 ng/mL)-driven luciferase signal (RLUs) in βγ-receptor reporter cells: 0.0757 µg/mL
- IC50, inhibition of the IL15 (6 ng/mL)-driven luciferase signal (RLUs) in βγ-receptor reporter cells: 0.6 µg/mL
Substance: anti-human CD122 antibody Clone TU27 (BioLegend, Catalog #339015)
